One assay deals with T1, HCoV-HKU1 S1 (HCoV-HKU1, UniProt Q5MQD0 13-760).
T1 construct: domain: S1
T1 sequence: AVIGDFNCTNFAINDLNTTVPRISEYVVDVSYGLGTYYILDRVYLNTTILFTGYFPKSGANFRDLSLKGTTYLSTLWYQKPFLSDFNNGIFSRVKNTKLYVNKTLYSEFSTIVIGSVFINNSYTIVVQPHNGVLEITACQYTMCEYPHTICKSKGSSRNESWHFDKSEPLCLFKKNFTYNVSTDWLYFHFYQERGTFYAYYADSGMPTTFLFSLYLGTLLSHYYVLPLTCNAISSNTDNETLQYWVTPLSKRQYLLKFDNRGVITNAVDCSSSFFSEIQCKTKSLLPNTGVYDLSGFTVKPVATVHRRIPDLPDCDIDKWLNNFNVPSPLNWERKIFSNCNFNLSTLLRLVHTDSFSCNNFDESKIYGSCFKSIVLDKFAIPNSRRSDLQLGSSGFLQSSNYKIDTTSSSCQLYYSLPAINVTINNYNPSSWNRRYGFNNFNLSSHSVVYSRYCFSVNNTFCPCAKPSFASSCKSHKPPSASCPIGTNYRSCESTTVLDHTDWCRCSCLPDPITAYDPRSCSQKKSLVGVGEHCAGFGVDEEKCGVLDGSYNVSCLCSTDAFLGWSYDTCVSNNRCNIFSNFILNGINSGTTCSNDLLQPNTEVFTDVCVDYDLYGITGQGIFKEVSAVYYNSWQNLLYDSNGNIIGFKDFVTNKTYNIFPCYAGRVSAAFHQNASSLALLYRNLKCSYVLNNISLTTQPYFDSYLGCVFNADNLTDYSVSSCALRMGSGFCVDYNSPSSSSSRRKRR
In words: Octet binding specificity analysis (FIG. 10). A general note: In BLI a coated tip is dipped into the sample, and binding shifts an interference pattern.

In assay [1] the target is SARS-CoV-2 S protein (spike protein) (SARS-CoV-2, UniProt P0DTC2 16-1213). In words: ELISA, S proteins on plate. On the technique in general: ELISA stands for enzyme-linked immunosorbent assay.

The values that follow come from patent publication US20230113734A1 (CELLTRION, published 2023).

B1: No. 139 antibody (full IgG) (antibody, V domains shown)
VH: QITLKESGPTLVKPTQTLTLTCSFSGFSLSTSGVGVGWIRQPPGKALEWLALIDWDDNKYHTTSLKTRLTISKDTSKNQVVLTMTNMDPVDTATYYCARIPGFLRYRNRYYYYGMDVWGQGTTVTVSS
VL: ELVLTQPPSVSAAPGQKVTISCSGSSSNIGNNYVSWYQQLPGTAPKLLIYDNNKRPSGIPDRFSGSKSGTSATLGITGLQTGDEADYYCGTWDSSLSAGVFGGGTELTVL
notes: also called CT-P59
For B1, in the assay with HCoV-HKU1 S1, the binding result is listed as “no binding”.

B2: No. 266 scFv-Fc antibody fragment (scFv, V domains shown)
VH: EVQLVESGGGLVQPGGSLRLSCAASGFTVSSNYMTWVRQAPGKGLEWVSVIYSGGSTFYADSVKGRFTISRDNSKNTLYLQMNSLRAEDTAVYYCARDLVVYGMDVWGQGTTVTVSS
VL: ELELTQPPSVSVAPGKTARITCGGNNIGSKSVHWYQQKPGQAPVLVIYYDSDRPSGIPERFSGSNSGNTATLTISRVEAGDEADYYCQVRDSSSDHPVFGGGTKVTVL
For B2, the Binding ability in assay [1] was 0.8 relative to positive control antibody.

B3: No. 268 scFv-Fc antibody fragment (scFv, V domains shown)
VH: QVQLVQSGGGVVQPGRSLRLSCAASGFTVSSNYMTWVRQAPGKGLEWVSVIYSGGSTFYADSVKGRFTISRDNSKNTLYLQMNSLRAEDTAVYYCARDLVVYGMDVWGQGTTVTVSS
VL: ELELTQPPSVSGAPGQRVTISCTGSDSNIGAGYDVHWYQQLPGTAPKLLIYNNNNRPSGVPDRFSGSKSGTSASLAITGLQAEDEADYFCQSSDSGLTGWVFGGGTKLTVL
For B3, the Binding ability in assay [1] was 1.09 relative to positive control antibody.

B4: No. 276 scFv-Fc antibody fragment (scFv, V domains shown)
VH: QVQLVQSGGGLVQPGGSLRLSCAASGFTVSSNYMTWVRQAPGKGLEWVSVIYSGGSTFYADSVKGRFTISRDNSKNTLYLQMNSLRAEDTAVYYCARDLVVYGMDVWGQGTTVTVSS
VL: ELELTQPPSASGAPGQRVTISCSGSSSNIGGSDVGWYQHLPGMAPRLLIYKSNQRPSGVPDRFSASKSGTSASLAISGLQSEDEGDYYCATWDDRLNWVFGGGTKVTVL
With B4, the Binding ability in assay [1] was 1 relative to positive control antibody.
